Results reported in patent US20220112288A1 (published 2022).
Changes are numbered by the printed parent chain.

B1: 75110_08M20A (antibody, V domains shown)
VH: QVQLQESDPGLVKPSETLSLTCTVSGGSISSYYWSWIRQPAGKGLEWIGRIYASGSTNYNPSLKSRVTMSVDTSKNQFSLKLSSVTAADTAVYYCARDREGYYYYGMDVWGQGTTVTVSS
VL: DIQMTQSPSSLSASVGDRVTITCQASQDISKYLNWYQQKPGKAPNLLIYAASNLETGVPSRFSGSGSGTDFTFTISSLQPEDIAAYYCQQYDSLPITFGQGTRLEIK
B2: 75110_06K03A (antibody, V domains shown)
VH: B1 VH with D8G, S31T, Y52N, A53T, N58T, D98E, R99L, G101R
VL: B1 VL with K31N, N45K, A50Y, N53I, A85T, I96L, Q100G, R103K, L104V
B3: 75110_08F20A (antibody, V domains shown)
VH: QVQLQESGPGLVKPSETLSLTCSVSGGSISTYYWSWIRQPAGKGLEWIGRICTTENTNYNPSLKSRVTMSIDSSKNQFSLKLSSVTAADTAVYYCARDLERLNYYGMDVWGQGATVTVSS
VL: B1 VL with K42I, N45K, A50D, I83F, A85T
B4: 75110_06G04A (antibody, V domains shown)
VH: B1 VH with Q5L, D8G, A53I, V71I, K75E, K81N, D98E, R99L, G101R, Y102P
VL: DIQMTQSPSSLSASVGDRVTITCQASQDISNYLNWYQQKPGKAPKLLIYNASTLETGVPSRFSGSGSGTDFTFTISSLQPEDIATYYCQQYDNLPLTFGGGTKVEFK
B5: 75110_08G08A (antibody, V domains shown)
VH: B3 VH
VL: B1 VL with K31N, K42I, N45K, A50D, A85T
B6: 75110_07J24A (antibody, V domains shown)
VH: QAQLQESGPGLVKPSETLSLTCTVSGGSISSYYYNWIRQPAGKGLEWIGRIYTSGRTDYNPSLKSRVTMSADTSKNQFSLKLSSVTAADTAVYYCARDEGPTDAFDIWGQGTMVTVSS
VL: DIVMTQTPLSLPVTPGEPASISCRSSQSLLDSDDGNTYLDWYLQKPGQSPHLLIYTLSYRASGVPDRFSGSGSGSDFTLKISRVEAEDVGVYYCMQRIEFPFTFGPGTKVDIK
B7: 75110_07B16A (antibody, V domains shown)
VH: QVQLQQWGAGLLKPSETLSLTCAVYGGSFSGYYWSWIRQSPGKGLEWIGEINQSGSTNYNPSLKSRVTISVDTSKDQFSLKLSSVTAADTAVYYCARVINWFDSWGQGSLVTVSS
VL: DIQMTQSPSSVSASVGDRVTITCRASQGISSWLAWYQQKPGKAPKLLIYDASSFQSGVPSRFSGSGSGTDFTLTISSLQTDDFATYYCQQANSFPYTFGQGTKLEIK
B8: 75110_09N20A (antibody, V domains shown)
VH: EVQLVESGGGLVQPGGSLRLSCAASGFTFSSYWMSWVRQAPGKGLEWVANINEDGSEKYYVDSVKGRFTISRDNAKNSLYLQMNSLRAEDTAVYYCVREGGQWLALDYWGQGTLVTVSS
VL: B7 VL with D50A, F54L, R61S, S76N, T80P, D81E, Y96W, L104V, E105A
B9: 75110_07H07A (antibody, V domains shown)
VH: B8 VH with L4V, N52K, D54E
VL: B7 VL with A13G, Y49F, D50G, F54L, T80P, D81E, Y96W, L104V, E105Q
B10: 75110_09G15A (antibody, V domains shown)
VH: B8 VH with S31D, E53Q, Y60S, V93I, Y94F, V97A
VL: B7 VL with D50G, F54L, S76N, T80P, D81E, A84T, S93I, Y96W, L104V
B11: 75110_07N04A (antibody, V domains shown)
VH: QVQLQESGPGLVKPSETLSLTCSVSGVSSTSFYWSWIRQPAGKGLDWIGRIYTSGSTNYNPSLKSRVTMSVDTSKNQFSLKLSSVTAADTAVYYCARDPGYSDAFAIWGQGTMVTVSS
VL: not shown
B12: 75110_08H11A (antibody, V domains shown)
VH: EVQLVESGGGLVQPGGSLRLSCAASGFTFSSYDMHWVRQATGKGLEWVSTIGTAGDTYYPGSVKGRFTISRENAKNSLYLQMNSLRAGDTAVYYCARGGYSYYGMDVWGQGTTVTVSS
VL: EIVLTQSPGTLSLSPGERATLSCGASQSVSSTYLAWYQQKPGQAPRLLIYGASSRATGIPDRFSGSGSGTDFTLTISRLEPEDFAVYYCQQFGSSPFTFGPGTKVDIK
B13: 75110_07E04A (antibody, V domains shown)
VH: B12 VH with A24V, N76K, S77F, S101Y
VL: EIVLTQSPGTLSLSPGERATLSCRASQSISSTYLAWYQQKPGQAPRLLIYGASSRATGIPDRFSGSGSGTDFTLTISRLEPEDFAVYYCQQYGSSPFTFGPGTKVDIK
B14: 75110_10N21A (antibody, V domains shown)
VH: B12 VH with A40V, S101Y
VL: B12 VL with G24R, V29F, S30I, T32S, E80D, F92S, S94N, I107V
B15: 75110_10L22A (antibody, V domains shown)
VH: B12 VH with S84G, G99N, S101F, M105V
VL: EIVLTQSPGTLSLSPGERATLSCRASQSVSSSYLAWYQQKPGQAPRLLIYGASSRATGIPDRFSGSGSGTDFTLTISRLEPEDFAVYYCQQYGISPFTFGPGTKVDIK
B16: 75110_08H06A (antibody, V domains shown)
VH: B12 VH with S31N, S101D
VL: B12 VL with G24R, V29I, S30T, T32I, Q38R, F92Y
B17: 75110_08K12A (antibody, V domains shown)
VH: B12 VH with K75E, V92L, G99D, S101Y
VL: B12 VL with G24R, S54N, S94T
B18: 75110_07J02A (antibody, V domains shown)
VH: EVQLVESGGGLVQPGGSLRLSCAASGFTFSSYWMSWVRQAPGKGLEWVANIKEDGSEKYYVDSVKGRFTISRDNAKNSLYLQMNSLRAEDTAVYYCARDGSYSGYGMDVWGQGTTVTVSS
VL: AIQMTQSPSSLSASVGDRVTITCRASQGIRNDLGWYQQKPGKAPKLLIYAASSLQSGVPSRFSGRGSGTDFALTISSLQPEDFATYYCLLDYNYPYTFGQGTRLEIK
B19: 75110_10K21A (antibody, V domains shown)
VH: EVQLVESGGGLVQPGGSLRLSCAASGFTFSSYWMTWVRQAPGKGLEWVANIKQDGSEKYYVDSVKGRFTISRDNAKNSLYLQMNSLRAEDTAVYYCVRDRYDALDIWGQGTMVTVSS
VL: B18 VL with G34N, R65S, A72T, P80A, L90K, R103K
B20: 75110_08A13A (antibody, V domains shown)
VH: B18 VH with T28I, E53Q, V61M, G100N, S103Y, G104Y
VL: B18 VL with N31D, Y49F, R61S, R65S, A72T, L90H, D91H, R103K

The binders below were run against T1, human CD4 on human PBMCs (human, UniProt P01730 26-458) (assay: FACS, clonal hybridoma supernatant on PBMCs).
T1 construct: whole, on cells; also called hCD4
In the case of B1, the “% CD4 Stain” value is reported as 34.1% and the “gMFI of CD4+” value is reported as 343000 gMFI.
In the case of B2, the “% CD4 Stain” value is reported as 34% and the “gMFI of CD4+” value is reported as 320000 gMFI.
With B3 the “% CD4 Stain” value was 33.2% and the “gMFI of CD4+” value was 307000 gMFI.
With B4 the “% CD4 Stain” value was 34.8% and the “gMFI of CD4+” value was 307000 gMFI.
With B5 the “% CD4 Stain” value was 32.2% and the “gMFI of CD4+” value was 324000 gMFI.
In the case of B6, the “% CD4 Stain” value is reported as 28.8% and the “gMFI of CD4+” value is reported as 28400 gMFI.
B7 was tested, and the “% CD4 Stain” value was 37.3% and the “gMFI of CD4+” value was 189000 gMFI.
With B8 the “% CD4 Stain” value was 37.5% and the “gMFI of CD4+” value was 227000 gMFI.
With B9 the “% CD4 Stain” value was 37.1% and the “gMFI of CD4+” value was 204000 gMFI.
In the case of B10, the “% CD4 Stain” value is reported as 37.3% and the “gMFI of CD4+” value is reported as 237000 gMFI.
With B11 the “% CD4 Stain” value was 33.8% and the “gMFI of CD4+” value was 104000 gMFI.
For B12, the “% CD4 Stain” value was 27.1% and the “gMFI of CD4+” value was 87000 gMFI.
In the case of B13, the “% CD4 Stain” value is reported as 36.1% and the “gMFI of CD4+” value is reported as 141000 gMFI.
In the case of B14, the “% CD4 Stain” value is reported as 38.3% and the “gMFI of CD4+” value is reported as 203000 gMFI.
B15 was tested, and the “% CD4 Stain” value was 34.3% and the “gMFI of CD4+” value was 77400 gMFI.
With B16 the “% CD4 Stain” value was 28.1% and the “gMFI of CD4+” value was 88800 gMFI.
B17 was tested, and the “% CD4 Stain” value was 34.6% and the “gMFI of CD4+” value was 175000 gMFI.
For B18, the “% CD4 Stain” value was 33.4% and the “gMFI of CD4+” value was 228000 gMFI.
In the case of B19, the “% CD4 Stain” value is reported as 29% and the “gMFI of CD4+” value is reported as 119000 gMFI.
For B20, the “% CD4 Stain” value was 30.3% and the “gMFI of CD4+” value was 140000 gMFI.
